The chains are these.
B1: Zfra1–31 (zinc finger-like protein that regulates apoptosis, full-length synthetic peptide) (peptide)
chain: MSSRRSSSCKYCEQDFRAHTQKNAATPFLAN
B2: ANKRD40266-281 (peptide)
chain: RIQNPSLRENDFIEIE
B3: pS271-ANKRD40266-281 (peptide)
chain: RIQNP[pS]LRENDFIEIE
B4: pS14-WWOX7-21 (peptide)
chain: AGLDDTD[pS]EDELPPG
B5: WWOX7-21 (peptide)
chain: AGLDDTDSEDELPPG
B6: pS35-TPC6A24-38 (peptide)
chain: DPGPGGQKMSL[pS]VLE
B7: pY287-WWOX286-299 (peptide)
chain: D[pY]WAMLAYNRSKLC
B8: WWOX286-299 (peptide)
chain: DYWAMLAYNRSKLC

Non-standard residues stand in square brackets, D forms with d. No end group written: not given here. pY = N[C@@H](Cc1ccc(OP(=O)(O)O)cc1)C(=O)O; pS = N[C@@H](COP(=O)(O)O)C(=O)O

One series concerns the molecule itself. The experiment in a line: reducing SDS-PAGE and Western blotting of SDS-resistant polymers. (In western blotting, separated proteins are transferred to a membrane and probed.)
Consider B1, for which the binding result was “binds”.

A further series addresses endogenous Aβ (AD hippocampus) (human (endogenous in postmortem hippocampus)). The experiment in a line: FRET or BRET. Background: In BRET a luciferase serves as donor, and the signal depends on an acceptor being close.
Consider “endogenous Zfra (human hippocampus) (natural protein)”, for which the FRETc was > 45.

Another series concerns the molecule itself. The experiment in a line: nonreducing SDS-PAGE of peptide polymers.
Consider B2, for which the binding result is on record as “binds”.

In the case of B3, the binding result is given as “binds”.

With B4, the binding result was “binds”.

As to B5, the binding result is reported as “binds”.

In the case of B6, the binding result was “binds”.

As to B7, the binding result is given as “binds”.

B8: the binding result was “binds”.
